Measured values reported in the supplement of paper PMC6757056.
± gives the standard deviation of the averaged measurements.

B1: library; a variant is named by its letters at N, in order (parent)
chain: GCUGUCACCGGUGCUUGGUACGUUAUAUUCAGCCGGUCUGAUGAGUCUNNNNNNAGACGAAACAGC

Columns and labels:
(6R,S)-folinic acid [1] = variants of: B1; experiment: FACS-Seq fitted mean relative fluorescence mCherry/BFP without ligand (log10 relative fluorescence); HEK293T overexpressing SLC46A1; higher = higher reporter protein expression; details: without (6R,S)-folinic acid; ligand present: no
Summary of the method: (§1)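 After lentiviral transduction, HEK293T library cells bearing an mCherry ribozyme-switch reporter and an EF1α-BFP marker were enriched. They were then held for 48 h with or without ligand and sorted by mCherry/BFP into 6 bins, and each bin's genomic DNA was PCR-amplified, barcoded and MiSeq-sequenced. Fluorescence is expressed as a normalized fitted mean: the normal mean of log10(mCherry/BFP) bin counts, scaled to five spiked-in control ribozymes.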

(6R,S)-folinic acid [2] = variants of: B1; experiment: normalized RNA/DNA level without ligand (relative to sTRSVctl = 100) (log10 (% of sTRSVctl)); HEK293T overexpressing SLC46A1; higher = less ribozyme self-cleavage, higher mRNA level; details: without (6R,S)-folinic acid; ligand present: no
Summary of the method: (§2)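 Total RNA, extracted with EDTA 72 h after HEK293T cells were transfected with 4 µg per 6-well well of reporter-linked ribozyme switch library plasmids, was reverse-transcribed, amplified, barcoded and sequenced. Ligand, if used, was added 1 h before transfection. RNA level was derived from RNA reads divided by DNA reads and normalized to a spiked-in non-cleaving sequence or to the top sequences. This was multiplied by 100 and log10-transformed, with the top set of 25 sequences and a ≥100 DNA read minimum.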

(6R,S)-folinic acid [3] = variants of: B1; experiment: FACS-Seq fitted mean relative fluorescence mCherry/BFP with ligand (log10 relative fluorescence); HEK293T overexpressing SLC46A1; ligand concentration (+) FACS-Seq: 6 mM; higher = higher reporter protein expression; details: with (6R,S)-folinic acid; ligand present: yes
Summary of the method: as §1

(6R,S)-folinic acid [4] = variants of: B1; experiment: normalized RNA/DNA level with ligand (relative to sTRSVctl = 100) (log10 (% of sTRSVctl)); HEK293T overexpressing SLC46A1; ligand concentration (+) RNA-Seq: 6 mM; higher = less ribozyme self-cleavage, higher mRNA level; details: with (6R,S)-folinic acid; ligand present: yes
Summary of the method: as §2

| Variant | FACS-Seq fitted mean (log10) ((6R,S)-folinic acid [1]) | normalized RNA/DNA level without ligand (log10) ((6R,S)-folinic acid [2]) | FACS-Seq fitted mean (log10) ((6R,S)-folinic acid [3]) | normalized RNA/DNA level with ligand (log10) ((6R,S)-folinic acid [4]) |
| --- | --- | --- | --- | --- |
| GCUGUCACCGGUGCUUGGUACGUUAUAUUCAGCCGGUCUGAUGAGUCUGCUGGUAGACGAAACAGC [GCUGGU] | 0.447 ± 0.19 | 1.969 ± 0.0056 | 0.172 ± 0.21 | 1.99 ± 0.032 |
| GCUGUCACCGGUGCUUGGUACGUUAUAUUCAGCCGGUCUGAUGAGUCUCCUUAUAGACGAAACAGC [CCUUAU] | 0.278 ± 0.013 | 2.023 ± 0.0064 | 0.394 ± 0.22 | 2.05 ± 0.022 |
| GCUGUCACCGGUGCUUGGUACGUUAUAUUCAGCCGGUCUGAUGAGUCUUCUGGAAGACGAAACAGC [UCUGGA] | 0.542 ± 0.018 | 1.99 ± 0.012 | -0.0265 ± 0.23 | 2.05 ± 0.027 |
| GCUGUCACCGGUGCUUGGUACGUUAUAUUCAGCCGGUCUGAUGAGUCUUCUGGGAGACGAAACAGC [UCUGGG] | 0.501 ± 0.098 | 1.836 ± 0.012 | 0.524 ± 0.01 | 1.98 ± 0.027 |
| GCUGUCACCGGUGCUUGGUACGUUAUAUUCAGCCGGUCUGAUGAGUCUCCUGCUAGACGAAACAGC [CCUGCU] | -0.139 ± 0.054 | 2.06 ± 0.013 | -0.135 ± 0.0061 | 2.08 ± 0.04 |
| GCUGUCACCGGUGCUUGGUACGUUAUAUUCAGCCGGUCUGAUGAGUCUACUGUGAGACGAAACAGC [ACUGUG] | 0.5433 ± 0.0045 | 1.853 ± 0.017 | 0.593 ± 0.12 | 2 ± 0.022 |
| GCUGUCACCGGUGCUUGGUACGUUAUAUUCAGCCGGUCUGAUGAGUCUACUUGGAGACGAAACAGC [ACUUGG] | 0.457 ± 0.11 | 1.898 ± 0.0091 | 0.649 ± 0.022 | 2 ± 0.049 |
| GCUGUCACCGGUGCUUGGUACGUUAUAUUCAGCCGGUCUGAUGAGUCUUCUUGGAGACGAAACAGC [UCUUGG] | 0.272 ± 0.099 | 1.904 ± 0.0099 | 0.131 ± 0.092 | 1.99 ± 0.022 |
| GCUGUCACCGGUGCUUGGUACGUUAUAUUCAGCCGGUCUGAUGAGUCUUCUUGCAGACGAAACAGC [UCUUGC] | 0.264 ± 0.036 | 2.018 ± 0.0075 | 0.449 ± 0.17 | 2.009 ± 0.016 |
| GCUGUCACCGGUGCUUGGUACGUUAUAUUCAGCCGGUCUGAUGAGUCUACUGGGAGACGAAACAGC [ACUGGG] | -0.0324 ± 0.033 | 1.841 ± 0.016 | 0.115 ± 0.1 | 2.0256 ± 0.0015 |
| GCUGUCACCGGUGCUUGGUACGUUAUAUUCAGCCGGUCUGAUGAGUCUUCUUAGAGACGAAACAGC [UCUUAG] | 0.183 ± 0.18 | 1.86 ± 0.053 | -0.141 ± 0.14 | 2.02 ± 0.019 |
| GCUGUCACCGGUGCUUGGUACGUUAUAUUCAGCCGGUCUGAUGAGUCUUCUGUUAGACGAAACAGC [UCUGUU] | 0.459 ± 0.039 | 2.02 ± 0.03 | 0.679 ± 0.29 | 2.0647 ± 0.00045 |
| GCUGUCACCGGUGCUUGGUACGUUAUAUUCAGCCGGUCUGAUGAGUCUGCUGUUAGACGAAACAGC [GCUGUU] | 0.356 ± 0.02 | 2.043 ± 0.0085 | 0.145 ± 0.17 | 2.04 ± 0.042 |
| GCUGUCACCGGUGCUUGGUACGUUAUAUUCAGCCGGUCUGAUGAGUCUCCUUUAAGACGAAACAGC [CCUUUA] | 0.459 ± 0.027 | 2.019 ± 0.018 | 0.136 ± 0.057 | 2.06 ± 0.053 |
| GCUGUCACCGGUGCUUGGUACGUUAUAUUCAGCCGGUCUGAUGAGUCUACUUAAAGACGAAACAGC [ACUUAA] | -0.0941 ± 0.16 | 1.974 ± 0.011 | -0.044 ± 0.31 | 1.98 ± 0.033 |
| GCUGUCACCGGUGCUUGGUACGUUAUAUUCAGCCGGUCUGAUGAGUCUACUUAGAGACGAAACAGC [ACUUAG] | 0.58 ± 0.02 | 1.93 ± 0.0033 | 0.402 ± 0.071 | 1.978 ± 0.0025 |
| GCUGUCACCGGUGCUUGGUACGUUAUAUUCAGCCGGUCUGAUGAGUCUACUUAUAGACGAAACAGC [ACUUAU] | 0.328 ± 0.084 | 1.991 ± 0.0041 | 0.329 ± 0.12 | 2.02 ± 0.031 |
| GCUGUCACCGGUGCUUGGUACGUUAUAUUCAGCCGGUCUGAUGAGUCUACUUACAGACGAAACAGC [ACUUAC] | 0.478 ± 0.045 | 2.009 ± 0.0089 | 0.5359 ± 0.00057 | 2.016 ± 0.014 |
| GCUGUCACCGGUGCUUGGUACGUUAUAUUCAGCCGGUCUGAUGAGUCUGCUUCAAGACGAAACAGC [GCUUCA] | 0.3988 ± 0.0025 | 2.04 ± 0.033 | 0.641 ± 0.1 | 2.06 ± 0.031 |
| GCUGUCACCGGUGCUUGGUACGUUAUAUUCAGCCGGUCUGAUGAGUCUGCUUACAGACGAAACAGC [GCUUAC] | 0.583 ± 0.13 | 2.02 ± 0.026 | 0.554 ± 0.32 | 2.01 ± 0.052 |
| GCUGUCACCGGUGCUUGGUACGUUAUAUUCAGCCGGUCUGAUGAGUCUGCUUAAAGACGAAACAGC [GCUUAA] | 0.522 ± 0.21 | 1.9846 ± 0.00062 | 0.5605 ± 0.0027 | 2.01 ± 0.023 |
